Where two headings read alike, the source gives them in different places.
B1: wild type HRE (OL568/OL569) (dsDNA)
DNA 1: AGCTTGCCCTACGTGCTGTCTCAGA
DNA 2: TCTGAGACAGCACGTAGGGCAAGCT
B2: mutated HRE (OL570/OL571) (dsDNA)
DNA 1: AGCTTGCCCTAGCTGCTGTCTCAGA
DNA 2: TCTGAGACAGCAGCTAGGGCAAGCT

Columns and labels:
HIF-1α;ARNT (HIF-1β) [1] = target: T1, HIF-1α;ARNT (HIF-1β) (human;human?, UniProt Q16665;P27540 1-826;1-789, |); test: competition
HIF-1α;ARNT (HIF-1β) [2] = target: T1, HIF-1α;ARNT (HIF-1β); test: competition; remark: listed apart in the source

T1 sequence (Q16665 whole entry, chain 1 of 2): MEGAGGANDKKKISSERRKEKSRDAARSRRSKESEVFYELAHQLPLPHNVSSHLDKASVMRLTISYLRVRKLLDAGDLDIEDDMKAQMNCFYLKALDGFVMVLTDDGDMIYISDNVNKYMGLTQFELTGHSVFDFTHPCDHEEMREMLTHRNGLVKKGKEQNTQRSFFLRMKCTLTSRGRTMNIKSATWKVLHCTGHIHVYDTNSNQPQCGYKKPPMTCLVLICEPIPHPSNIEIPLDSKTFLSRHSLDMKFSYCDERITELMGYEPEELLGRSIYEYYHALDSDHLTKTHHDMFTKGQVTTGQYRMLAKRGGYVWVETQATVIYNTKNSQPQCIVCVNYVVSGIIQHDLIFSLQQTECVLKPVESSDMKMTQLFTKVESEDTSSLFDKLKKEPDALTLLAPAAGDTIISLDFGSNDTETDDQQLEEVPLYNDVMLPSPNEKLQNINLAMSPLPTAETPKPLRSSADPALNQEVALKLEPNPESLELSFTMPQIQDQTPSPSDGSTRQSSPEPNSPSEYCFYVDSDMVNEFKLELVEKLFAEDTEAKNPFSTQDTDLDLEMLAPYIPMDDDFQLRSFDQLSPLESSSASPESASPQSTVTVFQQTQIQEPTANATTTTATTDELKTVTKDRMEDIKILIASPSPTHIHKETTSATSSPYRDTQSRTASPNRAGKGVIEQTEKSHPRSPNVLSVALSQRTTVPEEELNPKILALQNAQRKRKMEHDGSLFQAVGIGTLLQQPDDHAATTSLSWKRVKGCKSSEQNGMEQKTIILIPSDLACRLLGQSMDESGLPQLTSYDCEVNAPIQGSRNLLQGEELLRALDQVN
T1 sequence (P27540 whole entry, chain 2 of 2): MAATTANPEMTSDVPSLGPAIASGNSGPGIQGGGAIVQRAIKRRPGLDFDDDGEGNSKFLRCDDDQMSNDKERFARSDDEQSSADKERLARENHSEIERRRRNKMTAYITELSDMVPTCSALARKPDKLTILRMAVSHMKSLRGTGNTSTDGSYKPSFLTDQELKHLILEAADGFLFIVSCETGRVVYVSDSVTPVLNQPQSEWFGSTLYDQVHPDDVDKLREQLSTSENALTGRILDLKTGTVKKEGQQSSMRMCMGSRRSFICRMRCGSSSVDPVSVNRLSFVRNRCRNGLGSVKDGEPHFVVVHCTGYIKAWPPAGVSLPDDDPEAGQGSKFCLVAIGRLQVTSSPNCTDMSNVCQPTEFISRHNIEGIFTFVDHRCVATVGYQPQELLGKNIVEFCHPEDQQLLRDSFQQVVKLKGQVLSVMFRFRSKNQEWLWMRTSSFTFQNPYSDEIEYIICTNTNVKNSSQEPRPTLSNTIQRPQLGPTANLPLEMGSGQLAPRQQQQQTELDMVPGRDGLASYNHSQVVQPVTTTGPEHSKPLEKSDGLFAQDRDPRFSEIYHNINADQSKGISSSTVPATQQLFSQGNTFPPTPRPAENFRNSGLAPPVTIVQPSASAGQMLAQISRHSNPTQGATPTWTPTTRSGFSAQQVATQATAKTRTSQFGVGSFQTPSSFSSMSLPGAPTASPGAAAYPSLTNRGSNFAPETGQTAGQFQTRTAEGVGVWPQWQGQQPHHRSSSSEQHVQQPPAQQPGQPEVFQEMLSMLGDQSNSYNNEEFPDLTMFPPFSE

Row | Binder | binding result (HIF-1α;ARNT (HIF-1β) [1]) | binding result (HIF-1α;ARNT (HIF-1β) [2])
1 | B1 | binds | –
2 | B2 | – | no binding

From publication PMC3319868
